Laboratory results from the Human Domainome abundance scans (Beltran et al. 2025).
± gives the uncertainty stated by the source.

B1: Connector enhancer of kinase suppressor of ras 2, residues 9 to 71; numbered along this chain, Q8WXI2 (parent)
chain: SKWSPSQVVDWMKGLDDCLQQYIKNFEREKISGDQLLRITHQELEDLGVSRIGHQELILEAVD

Variants of: B1
Experiment: abundance fitness (aPCA) (normalised: wild type 0, dead -1); higher = more abundant; growth selection in yeast, the domain comes from the species named
Conditions: Homo sapiens

Abundance fitness, by site and new letter:
E29: K 0.02 ± 0.05 | L -0.179 ± 0.024 | M -0.054 ± 0.041 | N -0.143 ± 0.057 | Q -0.005 ± 0.035 | R -0.025 ± 0.023 | S -0.043 ± 0.033 | T -0.139 ± 0.037 | W -0.215 ± 0.03 | Y -0.102 ± 0.046
K30: A -0.069 ± 0.027 | C -0.097 ± 0.028 | D -0.225 ± 0.035 | E -0.105 ± 0.038 | F -0.324 ± 0.04 | G -0.048 ± 0.026 | H -0.04 ± 0.043 | L -0.225 ± 0.028 | M -0.113 ± 0.041 | N -0.075 ± 0.057 | Q -0.036 ± 0.037 | S -0.087 ± 0.027 | T -0.419 ± 0.04 | V -0.519 ± 0.031 | W -0.572 ± 0.063 | Y -0.391 ± 0.053
I31: A -0.914 ± 0.043 | C -0.99 ± 0.1 | D -0.931 ± 0.1 | E -0.827 ± 0.051 | F -0.573 ± 0.077 | H -0.71 ± 0.069 | K -0.886 ± 0.063 | L -0.26 ± 0.03 | M -0.361 ± 0.028 | N -0.732 ± 0.07 | P -0.744 ± 0.061 | Q -0.87 ± 0.082 | R -0.873 ± 0.041 | V -0.053 ± 0.027 | W -0.74 ± 0.056 | Y -0.948 ± 0.25
S32: A -0.077 ± 0.03 | C -0.029 ± 0.047 | E -0.341 ± 0.042 | F -0.493 ± 0.041 | G -0.074 ± 0.022 | H -0.361 ± 0.082 | I -0.589 ± 0.086 | L -0.706 ± 0.039 | M -0.394 ± 0.042 | N 0.024 ± 0.043 | P -0.624 ± 0.053 | R -0.142 ± 0.022 | T 0.022 ± 0.03 | V -0.475 ± 0.037 | W -0.322 ± 0.028 | Y -0.264 ± 0.056
G33: A -0.745 ± 0.05 | C -0.833 ± 0.07 | D -0.906 ± 0.067 | E -0.855 ± 0.092 | F -0.198 ± 0.05 | H -0.669 ± 0.073 | I -0.387 ± 0.1 | K -0.462 ± 0.07 | L -0.423 ± 0.034 | M -0.236 ± 0.046 | N -0.947 ± 0.12 | P -0.84 ± 0.069 | Q -0.559 ± 0.051 | R -0.631 ± 0.028 | S -0.668 ± 0.04 | T -0.645 ± 0.046 | V -0.417 ± 0.041 | W -0.216 ± 0.045 | Y -0.257 ± 0.039
D34: A 0.037 ± 0.028 | E 0.055 ± 0.037 | F -0.281 ± 0.056 | G -0.109 ± 0.03 | H -0.168 ± 0.071 | I -0.213 ± 0.055 | K -0.056 ± 0.057 | L -0.128 ± 0.025 | M -0.108 ± 0.037 | N -0.087 ± 0.039 | P -0.105 ± 0.031 | Q -0.031 ± 0.052 | R -0.075 ± 0.021 | S -0.06 ± 0.027 | T -0.118 ± 0.037 | V -0.159 ± 0.029 | W -0.142 ± 0.038 | Y -0.12 ± 0.037
Q35: A -0.088 ± 0.033 | C -0.328 ± 0.061 | D -0.158 ± 0.05 | E -0.172 ± 0.057 | F -0.33 ± 0.058 | G -0.485 ± 0.033 | K -0.054 ± 0.057 | L -0.392 ± 0.039 | M -0.152 ± 0.049 | N -0.119 ± 0.12 | P -0.903 ± 0.074 | R 0.033 ± 0.03 | S -0.291 ± 0.039 | V -0.19 ± 0.037 | W -0.523 ± 0.055 | Y -0.39 ± 0.074
L36: A -0.958 ± 0.056 | C -0.961 ± 0.089 | D -0.847 ± 0.048 | E -0.769 ± 0.039 | F -0.715 ± 0.091 | G -0.845 ± 0.052 | H -0.971 ± 0.12 | I -0.325 ± 0.041 | K -0.775 ± 0.075 | M -0.334 ± 0.045 | N -0.854 ± 0.075 | P -0.928 ± 0.069 | Q -0.898 ± 0.087 | R -0.82 ± 0.038 | S -0.846 ± 0.04 | T -0.88 ± 0.06 | V -0.713 ± 0.044 | W -1.04 ± 0.12 | Y -1.01 ± 0.086
L37: A -0.073 ± 0.023 | C -0.108 ± 0.041 | D -0.254 ± 0.031 | E -0.193 ± 0.031 | F -0.239 ± 0.052 | G -0.168 ± 0.028 | H -0.158 ± 0.071 | K -0.132 ± 0.047 | M 0.012 ± 0.049 | N -0.154 ± 0.047 | P -0.407 ± 0.041 | Q -0.151 ± 0.038 | R -0.145 ± 0.023 | S -0.072 ± 0.027 | T -0.155 ± 0.037 | V -0.078 ± 0.025 | W -0.349 ± 0.045 | Y -0.28 ± 0.043
R38: A -0.031 ± 0.04 | C -0.189 ± 0.034 | D -0.163 ± 0.05 | E -0.302 ± 0.053 | F -0.416 ± 0.049 | G -0.106 ± 0.026 | H -0.061 ± 0.043 | I -0.543 ± 0.046 | K -0.002 ± 0.033 | L -0.377 ± 0.029 | M -0.307 ± 0.05 | N -0.098 ± 0.065 | P -0.681 ± 0.055 | Q -0.134 ± 0.039 | W -0.549 ± 0.038 | Y -0.446 ± 0.093
I39: A -0.424 ± 0.04 | C -0.416 ± 0.052 | D -0.569 ± 0.075
